Source: publication PMC9152305

What was measured:
[1] = target: SARS-CoV-2 Omicron BA.2 spike extracellular domain trimer (SARS-CoV-2 Omicron BA.2) (UniProt P0DTC2); assay: cryo-EM structure
[2] = target: SARS-CoV-2 Omicron BA.2 spike extracellular domain trimer (SARS-CoV-2 Omicron BA.2) (UniProt P0DTC2); assay: BLI

Substance	stoichiometry N (Fab per spike trimer) [1]	Kd [2]
JMB2002 Fab	3	2.6 nM
JMB2002 IgG (antibody)		0.3 nM
